In patent US20260243776A1 (LEIBNIZ INSTITUT F R ALTERNSFORSCHUNG FRITZ LIPMANN …, published 2026):

Key:
BRD3 = BRD3 (human, UniProt Q15059 2-726, limits assumed); test: proximity biotinylation in HEK293T cells treated with the PROTAC KB02-JQ1 (10 uM), with or without MG132; recruitment induced by the small molecule
BRD2 = BRD2 (human, UniProt P25440 1-801, limits assumed); test: as above
BRD2, sequence (P25440 whole entry): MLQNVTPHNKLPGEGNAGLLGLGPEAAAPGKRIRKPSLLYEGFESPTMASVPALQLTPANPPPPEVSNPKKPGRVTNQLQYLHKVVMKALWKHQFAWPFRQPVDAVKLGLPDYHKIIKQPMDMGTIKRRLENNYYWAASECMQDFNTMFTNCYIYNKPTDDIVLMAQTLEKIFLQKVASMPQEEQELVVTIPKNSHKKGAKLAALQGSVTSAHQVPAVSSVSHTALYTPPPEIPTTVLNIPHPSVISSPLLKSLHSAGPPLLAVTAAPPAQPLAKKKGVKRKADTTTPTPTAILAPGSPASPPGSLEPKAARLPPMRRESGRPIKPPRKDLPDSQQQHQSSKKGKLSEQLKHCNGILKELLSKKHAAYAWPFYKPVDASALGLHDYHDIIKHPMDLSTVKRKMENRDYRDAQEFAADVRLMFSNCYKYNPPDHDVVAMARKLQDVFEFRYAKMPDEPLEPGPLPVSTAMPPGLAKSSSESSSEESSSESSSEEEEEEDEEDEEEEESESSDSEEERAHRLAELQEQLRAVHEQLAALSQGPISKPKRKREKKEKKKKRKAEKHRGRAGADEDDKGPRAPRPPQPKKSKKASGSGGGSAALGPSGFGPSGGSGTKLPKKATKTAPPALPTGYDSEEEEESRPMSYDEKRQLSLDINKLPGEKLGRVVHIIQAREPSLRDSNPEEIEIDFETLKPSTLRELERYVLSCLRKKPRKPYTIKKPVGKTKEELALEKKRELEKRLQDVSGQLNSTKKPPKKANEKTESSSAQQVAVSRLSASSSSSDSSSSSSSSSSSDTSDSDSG

BRD3, sequence (Q15059 2-726 limits assumed): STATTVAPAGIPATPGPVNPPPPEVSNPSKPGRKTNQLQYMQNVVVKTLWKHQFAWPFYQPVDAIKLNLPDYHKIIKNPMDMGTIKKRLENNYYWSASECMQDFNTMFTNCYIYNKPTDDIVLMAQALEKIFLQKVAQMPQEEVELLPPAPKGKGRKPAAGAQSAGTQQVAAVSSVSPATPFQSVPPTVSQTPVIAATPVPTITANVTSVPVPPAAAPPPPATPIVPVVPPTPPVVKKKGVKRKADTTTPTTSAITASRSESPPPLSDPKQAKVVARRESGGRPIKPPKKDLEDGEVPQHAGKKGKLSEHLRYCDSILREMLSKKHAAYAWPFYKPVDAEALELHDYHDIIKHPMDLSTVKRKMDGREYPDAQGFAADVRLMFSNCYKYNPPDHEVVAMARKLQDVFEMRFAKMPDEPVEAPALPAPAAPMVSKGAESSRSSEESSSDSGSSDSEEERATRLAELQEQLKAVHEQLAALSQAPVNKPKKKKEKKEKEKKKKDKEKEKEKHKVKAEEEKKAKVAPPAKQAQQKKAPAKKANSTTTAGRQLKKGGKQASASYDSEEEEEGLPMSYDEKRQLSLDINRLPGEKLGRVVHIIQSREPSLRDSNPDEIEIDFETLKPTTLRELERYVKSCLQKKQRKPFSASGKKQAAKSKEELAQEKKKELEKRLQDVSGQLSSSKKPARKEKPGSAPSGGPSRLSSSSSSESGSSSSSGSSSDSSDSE

B1: PSMA4-miniTurbo-FLAG (other)
chain: MSRRYDSRTTIFSPEGRLYQVEYAMEAIGHAGTCLGILANDGVLLAAERRNIHKLLDEVFFSEKIYKLNEDMACSVAGITSDANVLTNELRLIAQRYLLQYQEPIPCEQLVTALCDIKQAYTQFGGKRPFGVSLLYIGWDKHYGFQLYQSDPSGNYGGWKATCIGNNSAAAVSMLKQDYKEGEMTLKSALALAIKVLNKTMDVSKLSAEKVEIATLTRENGKTVIRVLKQKEVEQLIKKHEEEEAKAEREKKEKEQKEKDKYPTFLYKVVDSRMASIPLLNAKQILGQLDGGSVAVLPVVDSTNQYLLDRIGELKSGDACIAEYQQAGRGSRGRKWFSPFGANLYLSMFWRLKRGPAAIGLGPVIGIVMAEALRKLGADKVRVKWPNDLYLQDRKLAGILVELAGITGDAAQIVIGAGINVAMRRVEESVVNQGWITLQEAGINLDRNTLAAMLIRELRAALELFEQEGLAPYLSRWEKLDNFINRPVKLIIGDKEIFGISRGIDKQGALLLEQDGVIKPWMGGEISLRSAEKLQDDYKDDDDK
notes: also called A4-mT; PSMA4_miniTurboID
B1: binds (BRD3); binds (BRD2).
